Data as given in patent US20150010591A1 (UNIVERSITY OF BRITISH COLUMBIA, published 2015).

What was measured:
Assay in all cases: peptide eluted from immunoaffinity-purified MHC class II of infected C57BL/6 BM-DCs, LC-MS/MS
[1] = target: T1, …, peptide of C. trachomatis Sigma Regulatory factor (CT424) (Chlamydia trachomatis)
T1 construct: also called RsbV peptide

[2] = target: T2, […], peptide of C. trachomatis Predicted D-Amino Acid Dehydrogenase (CT375) (Chlamydia trachomatis)
T2 construct: also called CT375 peptide

[3] = target: T3, …, peptide of C. trachomatis Hypothetical protein CT837 (Chlamydia trachomatis)
T3 construct: also called CT837 peptide

[4] = target: T4, …, peptide of C. trachomatis Hypothetical protein CT144 (Chlamydia trachomatis)
T4 construct: also called CT144 peptide

[5] = target: T5, …, peptide of C. trachomatis Hypothetical protein CT289 (Chlamydia trachomatis)
T5 construct: also called CT289 peptide

[6] = target: T6, …, peptide of C. trachomatis Dihydrolipoamide acetyltransferase (CT247) (Chlamydia trachomatis)
T6 construct: also called PdhC peptide

[7] = target: T7, IPFAKPDANLSAED, peptide of C. trachomatis Hypothetical protein CT619 (Chlamydia trachomatis)
T7 construct: also called CT619 peptide

[8] = target: T8, …, peptide of C. trachomatis FHA domain; homology to adenylate cyclase (CT664) (Chlamydia trachomatis)
T8 construct: also called CT664 peptide

[9] = target: T9, …, peptide of C. trachomatis Muramidase (invasin repeat family) (CT759) (Chlamydia trachomatis)
T9 construct: also called NlpD peptide

[10] = target: T10, …, peptide of C. trachomatis Hypothetical protein CT143 (Chlamydia trachomatis)
T10 construct: also called CT143 peptide

[11] = target: T11, …, peptide of C. trachomatis CHLPN 76kDa Homolog (CT622) (Chlamydia trachomatis)
T11 construct: also called CT622 peptide

[12] = target: T12, …, peptide of C. trachomatis Hypothetical protein CT472 (Chlamydia trachomatis)
T12 construct: also called CT472 peptide

Measured: binding result

B1: MHC class II (I-Ab) molecules of bone marrow derived dendritic cells from C57BL/6 mice (receptor)
MHC II alpha: EDDIEADHVGTYGISVYQSPGDIGQYTFEFDGDELFYVDLDKKETVWMLPEFGQLASFDPQGGLQNIAVVKHNLGVLTKRSNSTPATNEAPQATVFPKSPVLLGQPNTLICFVDNIFPPVINITWLRNSKSVADGVYETSFFVNRDYSFHKLSYLTFIPSDDDIYDCKVEHWGLEEPVLKHWEPEIPAPMSELTETVVCALGLSVGLVGIVVGTIFIIQGLRSGGTSRHPGPL
MHC II beta: GDSERHFVYQFMGECYFTNGTQRIRYVTRYIYNREEYVRYDSDVGEHRAVTELGRPDAEYWNSQPEILERTRAELDTVCRHNYEGPETHTSLRRLEQPNVVISLSRTEALNHHNTLVCSVTDFYPAKIKVRWFRNGQEETVGVSSTQLIRNGDWTFQVLVMLEMTPRRGEVYTCHVEHPSLKSPITVEWRAQSESAWSKMLSGIGGCVLGVIFLGLGLFIRHRSQKGPRGPPPAGLLQ
notes: whole, on cells; also called MHC class II molecules
binds: all assays above
